Holding throughout (conditions): remark: other sources report otherwise
Assay [1] concerns the target T1, Human heat shock transcription factor 1 (Hsf1), wild type (human), Q00613.
T1 chain: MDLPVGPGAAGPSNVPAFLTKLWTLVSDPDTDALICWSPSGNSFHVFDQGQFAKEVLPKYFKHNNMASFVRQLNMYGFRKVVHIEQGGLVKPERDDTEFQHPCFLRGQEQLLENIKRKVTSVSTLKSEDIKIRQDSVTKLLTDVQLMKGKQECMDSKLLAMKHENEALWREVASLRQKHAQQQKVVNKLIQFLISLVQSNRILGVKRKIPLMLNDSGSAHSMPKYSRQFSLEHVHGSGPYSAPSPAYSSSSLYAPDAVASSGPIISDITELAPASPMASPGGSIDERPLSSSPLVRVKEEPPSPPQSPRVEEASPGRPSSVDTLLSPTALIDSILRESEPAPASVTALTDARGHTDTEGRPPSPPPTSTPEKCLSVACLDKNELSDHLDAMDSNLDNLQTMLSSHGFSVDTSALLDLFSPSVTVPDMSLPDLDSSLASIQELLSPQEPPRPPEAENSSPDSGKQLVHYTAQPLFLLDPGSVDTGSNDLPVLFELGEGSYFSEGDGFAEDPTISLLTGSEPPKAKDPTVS
Briefly: SEC + native gel or EMSA; trimer-to-monomer ratio of freshly purified Hsf1 in the absence of heat shock, by gel filtration (Superdex 200) and BN-PAGE. On the technique in general: A gel shift assay detects complexes by their altered migration in electrophoresis.

For assay [2], the target named is T1, Human heat shock transcription factor 1 …. Kind of assay: native gel or EMSA; blue-native PAGE (8% gel, on ice) of purified Hsf1 wild type or variants, also after 10 min at 4–42°C (5 μM protein); Coomassie stain or immunoblot with Hsf1 antiserum.
Assay [3] deals with T2, Hsf1 wild type expressed from pIRES‐HSF1_hrGFP in cells (human), Q00613.
T2 chain: T1 chain
Briefly: native gel or EMSA; blue-native PAGE of lysates (15 μg total protein) of transfected HSF1−/− MEFs, immunoblot with Hsf1 antiserum.

B1: Human heat shock transcription factor 1 (Hsf1), wild type, Q00613 1-529 (natural protein)
chain: T1 chain
What is called stoichiometry N is the number of molecules, sites or subunits per partner or assembly. As for B1, the stoichiometry N in assay [1] and in assay [2] was 3 each time.

B2: Hsf1 wild type expressed from pIRES‐HSF1_hrGFP in cells, Q00613 1-529 (natural protein)
chain: T1 chain
Consider B2, for which the stoichiometry N in assay [3] turned out to be 3.

These data come from article PMC7360973.
